Source: US20090252683A1 (Amgen, published 2009)

biological target: T1, human EGFR on A431 cells (human, UniProt P00533 25-1210); assay: FACS, A431 cells, 1 µg/ml purified protein, anti-His detection
T1 construct: whole, on cells
Method: In order to test the functionality of the cross-species specific bispecific antibody constructs with regard to binding capability to human and cynomolgus EGFR and CD3, respectively, a FACS analysis was performed. For this purpose the EGFR positive epidermoid carcinoma A431 cells (ATCC, CRL-1555) and CD3 positive human T cell leukemia cell line HPB-ALL (DSMZ, Braunschweig, ACC483) were used to check the binding to human antigens. The binding reactivity to cynomolgus antigens was tested by using the generated cynomolgus EGFR transfectants described in Example 20 and cynomolgus PBMCs which were obtained by Ficoll density gradient centrifugation. 200,000 cells of the respective cell population were incubated for 30 min on ice with 50 μl of the purified protein of the cross-species specific bispecific antibody constructs (1 μg/ml). The cells were washed twice in PBS and binding of the construct was detected with an unlabeled murine Penta His antibody (diluted 1:20 in 50 μl PBS with 2% FCS; Qiagen; Order No. 34660). After washing, bound anti His antibodies were detected with an Fc gamma-specific antibody (Dianova) conjugated to phycoerythrin, diluted 1:100 in 50 μl PBS with 2% FCS. Fresh culture medium was used as a negative control.
Cells were analyzed by flow cytometry on a FACS-Calibur apparatus (Becton Dickinson, Heidelberg). FACS staining and measuring of the fluorescence intensity were performed as described in Current Protocols in Immunology (Coligan, Kruisbeek, Margulies, Shevach and Strober, Wiley-Interscience, 2002).

Binder	binding result
EGFR LH × SEQ ID NO. 170 (bispecific antibody, the appendix prints the entry with HHHHHH and then *VD at its end) DIVLTQSPASLPVSLGQRATISCRASQSVSSSTYSYIHWYQQKPGQPPKLLITYASNLESGVPARFSGSGSGTDFTLDIHPVEEDDSSTYYCQHSWEIPFTFGSGTKLEIKGGGGSGGGGSGGGGSQVQLQQSGPDLVKPGASVKMSCKASGHTFTDCVIIWVKQRAGQGLEWIGQIYPGTGRSYYNEIFKGKATLTADKSSNTVHIQLSSLTSEDSAVYFCALSTLIHGTWFSYWGQGTLVTVSSGGGGSEVQLVESGGGLVQPGGSLKLSCAASGFTFNTYAMNWVRQAPGKGLEWVARIRSKYNNYATYYADSVKDRFTISRDDSKNTAYLQMNNLKTEDTAVYYCVRHGNFGNSYVSWFAYWGQGTLVTVSSGGGGSGGGGSGGGGSQTVVTQEPSLTVSPGGTVTLTCRSSTGAVTTSNYANWVQQKPGQAPRGLIGGTNKRAPGTPARFSGSLLGGKAALTLSGVQPEDEAEYYCALWYSNLWVFGGGTKLTVLHHHHHH	binds
SEQ ID NO. 170 × EGFR HL (bispecific antibody, the appendix prints the entry with HHHHHH and then *VD at its end) EVQLVESGGGLVQPGGSLKLSCAASGFTFNTYAMNWVRQAPGKGLEWVARIRSKYNNYATYYADSVKDRFTISRDDSKNTAYLQMNNLKTEDTAVYYCVRHGNFGNSYVSWFAYWGQGTLVTVSSGGGGSGGGGSGGGGSQTVVTQEPSLTVSPGGTVTLTCRSSTGAVTTSNYANWVQQKPGQAPRGLIGGTNKRAPGTPARFSGSLLGGKAALTLSGVQPEDEAEYYCALWYSNLWVFGGGTKLTVLSGGGGSQVQLQQSGPDLVKPGASVKMSCKASGHTFTDCVIIWVKQRAGQGLEWIGQIYPGTGRSYYNEIFKGKATLTADKSSNTVHIQLSSLTSEDSAVYFCALSTLIHGTWFSYWGQGTLVTVSSGGGGSGGGGSGGGGSDIVLTQSPASLPVSLGQRATISCRASQSVSSSTYSYIHWYQQKPGQPPKLLITYASNLESGVPARFSGSGSGTDFTLDIHPVEEDDSSTYYCQHSWEIPFTFGSGTKLEIKHHHHHH	binds
SEQ ID NO. 194 × EGFR HL (bispecific antibody, the appendix prints the entry with HHHHHH and then *VD at its end) QTVVTQEPSLTVSPGGTVTLTCRSSTGAVTTSNYANWVQQKPGQAPRGLIGGTNKRAPGTPARFSGSLLGGKAALTLSGVQPEDEAEYYCALWYSNLWVFGGGTKLTVLGGGGSGGGGSGGGGSEVQLVESGGGLVQPGGSLKLSCAASGFTFNTYAMNWVRQAPGKGLEWVARIRSKYNNYATYYADSVKDRFTISRDDSKNTAYLQMNNLKTEDTAVYYCVRHGNFGNSYVSWFAYWGQGTLVTVSSSGGGGSQVQLQQSGPDLVKPGASVKMSCKASGHTFTDCVIIWVKQRAGQGLEWIGQIYPGTGRSYYNEIFKGKATLTADKSSNTVHIQLSSLTSEDSAVYFCALSTLIHGTWFSYWGQGTLVTVSSGGGGSGGGGSGGGGSDIVLTQSPASLPVSLGQRATISCRASQSVSSSTYSYIHWYQQKPGQPPKLLITYASNLESGVPARFSGSGSGTDFTLDIHPVEEDDSSTYYCQHSWEIPFTFGSGTKLEIKHHHHHH	binds
EGFR LH × SEQ ID NO. 194 (bispecific antibody, the appendix prints the entry with HHHHHH and then *VD at its end) DIVLTQSPASLPVSLGQRATISCRASQSVSSSTYSYIHWYQQKPGQPPKLLITYASNLESGVPARFSGSGSGTDFTLDIHPVEEDDSSTYYCQHSWEIPFTFGSGTKLEIKGGGGSGGGGSGGGGSQVQLQQSGPDLVKPGASVKMSCKASGHTFTDCVIIWVKQRAGQGLEWIGQIYPGTGRSYYNEIFKGKATLTADKSSNTVHIQLSSLTSEDSAVYFCALSTLIHGTWFSYWGQGTLVTVSSSGGGGSQTVVTQEPSLTVSPGGTVTLTCRSSTGAVTTSNYANWVQQKPGQAPRGLIGGTNKRAPGTPARFSGSLLGGKAALTLSGVQPEDEAEYYCALWYSNLWVFGGGTKLTVLGGGGSGGGGSGGGGSEVQLVESGGGLVQPGGSLKLSCAASGFTFNTYAMNWVRQAPGKGLEWVARIRSKYNNYATYYADSVKDRFTISRDDSKNTAYLQMNNLKTEDTAVYYCVRHGNFGNSYVSWFAYWGQGTLVTVSSHHHHHH	binds
EGFR HL × SEQ ID NO. 194 (bispecific antibody, the appendix prints the entry with HHHHHH and then *VD at its end) QVQLQQSGPDLVKPGASVKMSCKASGHTFTDCVIIWVKQRAGQGLEWIGQIYPGTGRSYYNEIFKGKATLTADKSSNTVHIQLSSLTSEDSAVYFCALSTLIHGTWFSYWGQGTLVTVSSGGGGSGGGGSGGGGSDIVLTQSPASLPVSLGQRATISCRASQSVSSSTYSYIHWYQQKPGQPPKLLITYASNLESGVPARFSGSGSGTDFTLDIHPVEEDDSSTYYCQHSWEIPFTFGSGTKLEIKSGGGGSQTVVTQEPSLTVSPGGTVTLTCRSSTGAVTTSNYANWVQQKPGQAPRGLIGGTNKRAPGTPARFSGSLLGGKAALTLSGVQPEDEAEYYCALWYSNLWVFGGGTKLTVLGGGGSGGGGSGGGGSEVQLVESGGGLVQPGGSLKLSCAASGFTFNTYAMNWVRQAPGKGLEWVARIRSKYNNYATYYADSVKDRFTISRDDSKNTAYLQMNNLKTEDTAVYYCVRHGNFGNSYVSWFAYWGQGTLVTVSSHHHHHH	binds

Results, then the binder that gave them:

binding result	Binder
binds	SEQ ID NO. 194 × EGFR LH (bispecific antibody, 186 as EGFR LH; the appendix heads it EGFR HL; ends with HHHHHH and *VD in the appendix) QTVVTQEPSLTVSPGGTVTLTCRSSTGAVTTSNYANWVQQKPGQAPRGLIGGTNKRAPGTPARFSGSLLGGKAALTLSGVQPEDEAEYYCALWYSNLWVFGGGTKLTVLGGGGSGGGGSGGGGSEVQLVESGGGLVQPGGSLKLSCAASGFTFNTYAMNWVRQAPGKGLEWVARIRSKYNNYATYYADSVKDRFTISRDDSKNTAYLQMNNLKTEDTAVYYCVRHGNFGNSYVSWFAYWGQGTLVTVSSSGGGGSDIVLTQSPASLPVSLGQRATISCRASQSVSSSTYSYIHWYQQKPGQPPKLLITYASNLESGVPARFSGSGSGTDFTLDIHPVEEDDSSTYYCQHSWEIPFTFGSGTKLEIKGGGGSGGGGSGGGGSQVQLQQSGPDLVKPGASVKMSCKASGHTFTDCVIIWVKQRAGQGLEWIGQIYPGTGRSYYNEIFKGKATLTADKSSNTVHIQLSSLTSEDSAVYFCALSTLIHGTWFSYWGQGTLVTVSSHHHHHH
binds	EGFR HL × SEQ ID NO. 170 (bispecific antibody, the appendix prints the entry with HHHHHH and then *VD (stop and vector residues) at its end) QVQLQQSGPDLVKPGASVKMSCKASGHTFTDCVIIWVKQRAGQGLEWIGQIYPGTGRSYYNEIFKGKATLTADKSSNTVHIQLSSLTSEDSAVYFCALSTLIHGTWFSYWGQGTLVTVSSGGGGSGGGGSGGGGSDIVLTQSPASLPVSLGQRATISCRASQSVSSSTYSYIHWYQQKPGQPPKLLITYASNLESGVPARFSGSGSGTDFTLDIHPVEEDDSSTYYCQHSWEIPFTFGSGTKLEIKSGGGGSEVQLVESGGGLVQPGGSLKLSCAASGFTFNTYAMNWVRQAPGKGLEWVARIRSKYNNYATYYADSVKDRFTISRDDSKNTAYLQMNNLKTEDTAVYYCVRHGNFGNSYVSWFAYWGQGTLVTVSSGGGGSGGGGSGGGGSQTVVTQEPSLTVSPGGTVTLTCRSSTGAVTTSNYANWVQQKPGQAPRGLIGGTNKRAPGTPARFSGSLLGGKAALTLSGVQPEDEAEYYCALWYSNLWVFGGGTKLTVLHHHHHH
binds	SEQ ID NO. 170 × EGFR LH (bispecific antibody, 184 as EGFR LH; the appendix heads it EGFR HL; ends with HHHHHH and *VD in the appendix) EVQLVESGGGLVQPGGSLKLSCAASGFTFNTYAMNWVRQAPGKGLEWVARIRSKYNNYATYYADSVKDRFTISRDDSKNTAYLQMNNLKTEDTAVYYCVRHGNFGNSYVSWFAYWGQGTLVTVSSGGGGSGGGGSGGGGSQTVVTQEPSLTVSPGGTVTLTCRSSTGAVTTSNYANWVQQKPGQAPRGLIGGTNKRAPGTPARFSGSLLGGKAALTLSGVQPEDEAEYYCALWYSNLWVFGGGTKLTVLSGGGGSDIVLTQSPASLPVSLGQRATISCRASQSVSSSTYSYIHWYQQKPGQPPKLLITYASNLESGVPARFSGSGSGTDFTLDIHPVEEDDSSTYYCQHSWEIPFTFGSGTKLEIKGGGGSGGGGSGGGGSQVQLQQSGPDLVKPGASVKMSCKASGHTFTDCVIIWVKQRAGQGLEWIGQIYPGTGRSYYNEIFKGKATLTADKSSNTVHIQLSSLTSEDSAVYFCALSTLIHGTWFSYWGQGTLVTVSSHHHHHH
